Reference: patent publication US20240150440A1 (LUMEN BIOSCIENCE, published 2024)

B1: PP883 MBP-R1e-D4-H6 (VHH)
VHH: QVQLVESGGGLVQPGGSLRLSCAASGSIREINAMHWVRQAPGKGRELVASIDSGSLDYYADSVKGRFTISRDNAKNTVYLQMNSLKPEDTAVYYCAASRSGDYRYWGQGTQVTVSS
notes: Form: Monomer
B2: PP880 MBP-R5a-B5-H6 (VHH)
VHH: QVQLVESGGGLVQPGGSLRLSCAASGDDFIENAISWYRQAPGKGREWVAAVTLGGHSNYADSVKGRFTISRDNAKNTVYLQMNSLKPEDTAVYYCNYPVGIPAVAIDGRRSYGYWGQGTQVTVSS
notes: Form: Monomer
B3: PP881 MBP-R5a-F2-H6 (VHH)
VHH: QVQLVESGGGLVQPGGSLRLSCAASGSISSIEAMSWFRQAPGKQREGVATMASGGDTSYADSVKGRFTISRDNAKNTVYLQMNSLKPEDTAVYYCAAQTYRPDTWGRYTFWGQGTQVTVSS
notes: Form: Monomer
B4: PP885 MBP-R5b-C5-H6 (VHH)
VHH: QVQLVESGGGLVQPGGSLRLSCAASGSPFKTQTVHWFRQAPGKGREWVASITSGSGTQYMDSVKGRFTISRDNAKNTVYLQMNSLKPEDTAVYYCAAANDGYGVDWGQGTQVTVSS
notes: Form: Monomer
B5: PP884 MBP-R1i-A11-H6 (VHH)
VHH: QVQLVESGGGLVQPGGSLRLSCAASGSILQINAIHWFRQAPGKQREEVAAITSGGSTGYADSVKGRFTISRDNAKNTVYLQMNSLKPEDTAVYYCAATSTRGGLDSDYWGQGTQVTVSS
notes: Form: Monomer
B6: PP901 MBP-5HVZ-R1e-B2-H6 (VHH)
VHH: QVQLVESGGGLVQPGGSLRLSCAASGQITAENYMHWYRQAPGKQREWVAAITTGGSTLYADSVKGRFTISRDNAKNTVYLQMNSLKPEDTAVYYCNADRSYFPDYWGQGTQVTVSS
notes: Form: Dimer
B7: MBP-5HVZ-R5C-E1-H6 (VHH, not shown: large carriers; small tags and cut ends)
VHH: QVQLVESGGGLVQPGGSLRLSCAASGYIFSATVMHWFRQAPGKQREGVASINSTGSSQYADSVKGRFTISRDNAKNTVYLQMNSLKPEDTAVYYCAADGADVVYGNRYWGQGTQVTVSS
B8: MBP-R5C-B1-H6 (VHH, not shown: large carriers; small tags and cut ends)
VHH: QVQLVESGGGLVQPGGSLRLSCAASGSGFSNNAMHWYRQAPGKQREGVAGITSGSVSFYADSVKGRFTISRDNAKNTVYLQMNSLKPEDTAVYYCAAVTGSSTGNAGQGYLTWGQGTQVTVSS
B9: MBP-5HVZ-R5C-A1-H6 (VHH, not shown: large carriers; small tags and cut ends)
VHH: QVQLVESGGGLVQPGGSLRLSCAASGLDVSINFMHWYRQAPGKEREGVAGITWQGSTYYADSVKGRFTISRDNAKNTVYLQMNSLKPEDTAVYYCATVWAGGTPNDYWGQGTQVTVSS
B10: R5C-A2 (competition ELISA sample) (VHH)
VHH: QVQLVESGGGLVQPGGSLRLSCAASGDIFSKNAMHWVRQAPGKQREFVAGIYSDGSSLYADSVKGRFTISRDNAKNTVYLQMNSLKPEDTAVYYCAALDYSARYRTWGQGTQVTVSS
B11: MBP-5HVZ-R5C-B2-H6 (VHH, not shown: large carriers; small tags and cut ends)
VHH: QVQLVESGGGLVQPGGSLRLSCAASGSIFSLNWVHWFRQAPGKSREGVASINSGGHADYSDSVKGRFTISRDNAKNTVYLQMNSLKPEDTAVYYCAAGPYGAYNFNSWGQGTQVTVSS
B12: MBP-R5C-E3-H6 (VHH, not shown: large carriers; small tags and cut ends)
VHH: QVQLVESGGGLVQPGGSLRLSCAASGSFFSINAVHWFRQAPGKEREFVASISVGDSRSYRDSVKGRFTISRDNAKNTVYLQMNSLKPEDTAVYYCAAQIYITTYELYDYWGQGTQVTVSS
B13: MBP-5HVZ-R5C-E3-H6 (VHH, not shown: large carriers; small tags and cut ends)
VHH: B12 VHH
B14: PP1112 MBP-5HVZ-PAPA-RN-28-H6 (VHH)
VHH: QVQLVESGGGLVQPGGSLRLSCAASGSQFSHNLMSWFRQAPGKQREFVAAITSFGSTGYADSVKGRFTISRDNAKNTVYLQMNSLKPEDTAVYYCAALSSEDTSHYPRNYWGQGTQVTVSS
notes: Form: Dimer
B15: PP1113 MBP-5HVZ-PAPA-RN-29-H6 (VHH)
VHH: QVQLVESGGGLVQPGGSLRLSCAASGYILSENLTAWFRQAPGKAREVVATVTSGDYTNYDDSVKGRFTISRDNAKNTVYLQMNSLKPEDTAVYYCAAGTSDWEVKWSHWGQGTQVTVSS
notes: Form: Dimer
B16: PP1114 MBP-5HVZ-PAPA-RN-30-H6 (VHH)
VHH: QVQLVESGGGLVQPGGSLRLSCAASGIPASYLNMHWFRQAPGKQREWVAGAGGTNSNYYQDSVKGRFTISRDNAKNTVYLQMNSLKPEDTAVYYCAALDGAESYDYVYPVWGQGTQVTVSS
notes: Form: Dimer
B17: PP1115 MBP-5HVZ-PAPA-RN-31-H6 (VHH)
VHH: QVQLVESGGGLVQPGGSLRLSCAASGSTGSDYAMHWFRQAPGKDREWVAGISSYGSDSYGDSVKGRFTISRDNAKNTVYLQMNSLKPEDTAVYYCAALQASAGAGYYYDYWGQGTQVTVSS
notes: Form: Dimer
B18: PP922 MBP-R5a-F5-H6 (VHH)
VHH: QVQLVESGGGLVQPGGSLRLSCAASGYHASILAMHWVRQAPGKEREWVASMTWSDMTQYSDSVKGRFTISRDNAKNTVYLQMNSLKPEDTAVYYCAATYVTRDRPWTHWGQGTQVTVSS
notes: Form: Monomer
B19: PP1100 MBP-5HVZ-PAPA-RN-14-H6 (VHH)
VHH: QVQLVESGGGLVQPGGSLRLSCAASGENFSGNLVHWFRQAPGKAREGVATVTSTGSGYYADSVKGRFTISRDNAKNTVYLQMNSLKPEDTAVYYCAAKHQKGEIPYYDWGQGTQVTVSS
notes: Form: Dimer
B20: PP1096 MBP-5HVZ-PAPA-RN-3-H6 (VHH)
VHH: QVQLVESGGGLVQPGGSLRLSCAASGFEFTYRAVHWFRQAPGKGREWVAGVVSGGSTYYADSVKGRFTISRDNAKNTVYLQMNSLKPEDTAVYYCNAGPQAEEDTYDYWGQGTQVTVSS
B21: PP1098 MBP-5HVZ-PAPA-RN-9-H6 (VHH)
VHH: QVQLVESGGGLVQPGGSLRLSCAASGLRFAMTEMAWFRQAPGKQREFVALITEGGSGSYGDSVKGRFTISRDNAKNTVYLQMNSLKPEDTAVYYCAALHYTEGANTESATTFDYWGQGTQVTVSS
B22: PP1094 MBP-5HVZ-PAPA-RN-1-H6 (VHH)
VHH: QVQLVESGGGLVQPGGSLRLSCAASGYIFEGGPTAWFRQAPGKGREFVAAITTSGETSYAYSVKGRFTISRDNAKNTVYLQMNSLKPEDTAVYYCNATDRDETGYDYWGQGTQVTVSS
B23: PP1095 MBP-5HVZ-PAPA-RN-2-H6 (VHH)
VHH: QVQLVESGGGLVQPGGSLRLSCAASGSYFSKNAVHWYRQAPGKGREWVAALTNSGSGNYKDSVKGRFTISRDNAKNTVYLQMNSLKPEDTAVYYCTANISESTGQGYDYWGQGTQVTVSS
B24: PP1097 MBP-5HVZ-PAPA-RN-5-H6 (VHH)
VHH: QVQLVESGGGLVQPGGSLRLSCAASGSSFRILAMHWYRQAPGKNREWVAVITSNGNTYYADSVKGRFTISRDNAKNTVYLQMNSLKPEDTAVYYCNADTLDLDDGATYNYWGQGTQVTVSS
B25: PP935 MBP-5HVZ-S3b-E11-H6 (VHH)
VHH: QVQLVESGGGLVQPGGSLRLSCAASGDIYSQSAMAWYRQAPGKEREFVAAITTTGSRSYKDSVKGRFTISRDNAKNTVYLQMNSLKPEDTAVYYCAAFAVRSSSVSDAYDYWGQGTQVTVSS
notes: Form: Dimer
B26: PP933 MBP-5HVZ-R5e-C1-H6 (VHH)
VHH: QVQLVESGGGLVQPGGSLRLSCAASGSIPYVQAMSWFRQAPGKGREGVASIGWGGGTYYADSVKGRFTISRDNAKNTVYLQMNSLKPEDTAVYYCAAKFRENFSFYDYWGQGTQVTVSS
notes: Form: Dimer
B27: PP1147 MBP-5HVZ-PAPA-R5a-B7-H6 (VHH)
VHH: QVQLVESGGGLVQPGGSLRLSCAASGAFFSYGAIHWFRQAPGKQREEVAAITSGGSTGYADSVKGRFTISRDNAKNTVYLQMNSLKPEDTAVYYCNAGVVWLPSNAAYNLWGQGTQVTVSS
notes: Form: Dimer
B28: PP1159 MPB-scTRP-PAPA-R5a-B7-H6 (VHH)
VHH: B27 VHH
notes: Form: Trimer
B29: PP1135 MBP-4B0F-PAPA-R5a-B7-H6 (VHH)
VHH: B27 VHH
notes: Form: Heptamer
B30: PP899 MBP-5HVZ-R5a-B5-H6 (VHH)
VHH: B2 VHH
notes: Form: Dimer

molecular target: T1, recombinant SARS-CoV-2 RBD with C-terminal AviTag (SARS-CoV-2, UniProt P0DTC2 319-541); assay: BLI, biotinylated RBD on streptavidin biosensors [Cont. 6]

Row | Binder | Kd [nM]
1 | B1 | 47
2 | B2 | 60.8
3 | B3 | 705
4 | B4 | 88.5
5 | B5 | 23.7
6 | B6 | 197

molecular target: T1, recombinant SARS-CoV-2 RBD with …; assay: not given

Row | Binder | IC50 [nM] | Kd [nM]
7 | B7 | 4.5 | 6.13
8 | B8 | – | 55.3
9 | B9 | 10.3 | 379
10 | B10 | 13.7 | 13.2
11 | B11 | 5.9 | 57.3
12 | B12 | – | ~1370
13 | B13 | 9.2 | –

molecular target: T1, recombinant SARS-CoV-2 RBD with …; assay: ELISA, competition with coated ACE2-Fc for RBD [Cont. 9]

Row | Binder | IC50 [nM]
14 | B14 | 10.5
15 | B15 | 4.9
16 | B16 | 3.4
17 | B17 | 11.6

molecular target: T1, recombinant SARS-CoV-2 RBD with …; assay: ELISA, competition with coated ACE2-Fc for RBD [Cont. 8]

Row | Binder | IC50 [nM]
18 | B18 | 97.9
19 | B19 | 3.2
20 | B20 | 46.8
21 | B21 | 2.3
22 | B22 | 7.8
23 | B23 | 3.2
24 | B24 | 2.3
25 | B25 | 12.2
26 | B26 | 1.9

molecular target: T1, recombinant SARS-CoV-2 RBD with …; assay: ELISA, competition with coated ACE2-Fc for RBD [Cont. 6]

Row | Binder | IC50 [nM]
27 | B27 | 2.4
28 | B28 | 56.5
29 | B29 | 18.2
30 | B2 | 43.9
31 | B30 | 0.9
32 | B5 | 173

molecular target: SARS-COV-2 Wuhan Reference RBD (SARS-CoV-2, UniProt P0DTC2 319-541); assay: ELISA, RBD coated

Row | Binder | EC50 [nM]
33 | B27 | 0.36
34 | B14 | 1.36
35 | B15 | 0.34
36 | B19 | 0.31
37 | B16 | 1.14
38 | B20 | 1.47
39 | B21 | 0.83
40 | B22 | 0.96
41 | B23 | 0.78
42 | B24 | 0.25
43 | B25 | 0.47
44 | B17 | 4.9
45 | B26 | 4.9
